In this assay the target is T1, full length human O-GlcNAcase, long isoform (OGA-L) (human, UniProt O60502 1-916).
T1 construct: human O-GlcNAcase, long isoform (OGA-L), 103 kDa, full length; Dimer in the cryo-EM structure; The methods name an anti-c-Myc antibody beside the anti-His6 antibody; the 'C-term' tag may be c-Myc; also called hOGA; full-length OGA; source: E. coli TOP10 (pBAD/HisA, codon optimized), purified (Talon resin for the arrays; HisTrap and size-exclusion chromatography for cryo-EM); not shown: His6, …
T1 sequence (looked up): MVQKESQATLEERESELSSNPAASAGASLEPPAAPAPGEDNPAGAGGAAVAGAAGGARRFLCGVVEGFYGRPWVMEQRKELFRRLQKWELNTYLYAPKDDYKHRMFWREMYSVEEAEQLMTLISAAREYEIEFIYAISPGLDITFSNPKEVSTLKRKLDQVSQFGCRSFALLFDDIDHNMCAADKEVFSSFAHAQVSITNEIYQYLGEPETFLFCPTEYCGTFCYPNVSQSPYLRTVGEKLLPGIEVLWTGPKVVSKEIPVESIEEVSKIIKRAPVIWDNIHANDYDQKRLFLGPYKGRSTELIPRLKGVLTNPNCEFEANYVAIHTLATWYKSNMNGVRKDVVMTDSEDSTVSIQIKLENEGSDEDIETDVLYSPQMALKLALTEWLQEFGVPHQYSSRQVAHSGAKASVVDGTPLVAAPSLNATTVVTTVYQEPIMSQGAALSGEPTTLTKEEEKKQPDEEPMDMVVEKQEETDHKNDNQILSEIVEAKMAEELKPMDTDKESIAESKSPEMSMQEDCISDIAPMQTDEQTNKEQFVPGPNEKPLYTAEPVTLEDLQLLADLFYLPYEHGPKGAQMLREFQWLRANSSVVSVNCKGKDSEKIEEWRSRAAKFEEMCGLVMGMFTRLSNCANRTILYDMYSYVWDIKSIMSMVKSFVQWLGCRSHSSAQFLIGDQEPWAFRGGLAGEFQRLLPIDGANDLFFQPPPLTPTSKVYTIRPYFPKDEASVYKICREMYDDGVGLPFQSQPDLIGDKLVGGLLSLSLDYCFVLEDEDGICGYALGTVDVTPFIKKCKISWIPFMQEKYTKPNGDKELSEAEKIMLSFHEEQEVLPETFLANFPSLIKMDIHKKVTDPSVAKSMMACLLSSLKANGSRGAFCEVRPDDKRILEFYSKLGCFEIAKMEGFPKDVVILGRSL
The assay is described as follows: peptide or protein array; Active Motif MODified Histone Peptide Array (384 modified histone peptides in duplicate, on the array); 100 nM protein in 20 mM Tris pH 7.5, 1 mM DTT, 0.5 mg/mL BSA, RT 1 hour; detected by anti-His6 antibody (also C-term tag antibody) and IR-800 secondary antibody. Conditions: both partners purified.

B1: histone H4 1-19 peptide, K5,8,12,16Ac (peptide, UniProt P62805 2-20, looked up)
peptide: SGRGKGGKGLGKGGAKRHR
modifications: acetyl-lysine at K5, K8, K12 and K16
notes: histone H4 tail peptide, residues 1-19; also called H4 1-19 K5,8,12,16Ac; H4K^5,8,12,16Ac; source: bought: Active Motif MODified Histone Peptide Array (peptide on the array)
Consider B1, for which the binding result is recorded as “binds”.
